Reference: article PMC6915026

Target: alpha-synuclein (UniProt P37840 1-140)
Assay: interdigitated electrode current change (aptamer-GNP immobilized); 1 uM protein; titration 10 pM-1 uM, detection limit 10 pM (not a Kd); Aptamer-GNP on APTES-modified IDE, blocked with 1 M ethanolamine (30 min, RT); PBS listed as reagent, binding buffer, salt, pH and temperature not stated

B1: antisynuclein aptamer (ssDNA)
DNA: ATAGTCCCATCATTCATTGTATGGTACGGCGCGGTGGCGGGTGCGTGGAGATATTAGCAAGTGTCA
binding result: binds
